Target: T1, His-LEC1 (LEAFY COTYLEDON1) (Arabidopsis, UniProt Q9SFD8 1-238)
T1 construct: LEAFY COTYLEDON1 (LEC1), NF-Y transcription factor, Arabidopsis, AT1G21970; Vector pQE30; source: E. coli Rosetta DE3, purified (Ni-nitrilotriacetic acid agarose beads)
T1 sequence (looked up): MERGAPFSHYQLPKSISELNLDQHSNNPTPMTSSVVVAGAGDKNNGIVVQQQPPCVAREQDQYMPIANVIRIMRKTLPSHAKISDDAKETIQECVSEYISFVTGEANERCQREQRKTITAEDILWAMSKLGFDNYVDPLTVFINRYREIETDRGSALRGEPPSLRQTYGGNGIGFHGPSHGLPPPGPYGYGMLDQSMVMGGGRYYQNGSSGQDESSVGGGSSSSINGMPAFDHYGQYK
Test: pull-down; 2 μg of His-LEC1 or His-GFP incubated with immobilized GST or GST fusion proteins; 50 mM Tris-HCl pH 8.0, 100 mM NaCl, 1 mM EDTA; 4°C, 4 h; detected with an anti-His antibody
Conditions: both partners purified

binding result: binds
B1: GST-TCL2 (TRICHOMELESS2) (natural protein, Arabidopsis, UniProt B3H4X8 1-100, looked up)
chain: MDNTNRLRHLRSRKQSKFTLGDTAEVNSVKWEFINMTEQEEDLIFRMHRLVGDRWDLIAGRVVGREAKDIERYWIMRNCDHCSHKRRRVHKFYRFSISPP
notes: TCL2, single-repeat R3 MYB protein, Arabidopsis, AT2G30424; Vector pGEX-4T-1; source: E. coli Rosetta DE3, purified (glutathione sepharose beads)

From paper PMC4630568, “Arabidopsis LEAFY COTYLEDON1 controls cell fate determination during post-embryonic development” (Frontiers in Plant Science, 2015)
